Test results taken from article PMC11222466.

Columns and labels:
[1] = biological target: PHB-CC_(ΔEA4), PHB-CC variant with A286E287A288 deleted (Staphylococcus aureus); test: SEC; purified FloA variants at ~60 μM, Superdex 200 Increase 10/300 GL, 300 mM NaCl, 50 mM Tris-HCl pH 8.0, 10% glycerol, 0.02% DDM
[2] = biological target: Purified PHB domain of FloA (Staphylococcus aureus); test: as above
[3] = biological target: Purified OBL domain of NfeD (Staphylococcus aureus); test: SEC; purified NfeD variants at ~60 μM, Superdex 75 Increase 10/300 GL, 300 mM NaCl, 50 mM Tris-HCl pH 8.0, 10% glycerol, 0.02% DDM
[4] = biological target: Purified native NfeD (Staphylococcus aureus); test: as above

Which stoichiometry N [1] does the source give for “PHB-CC_(ΔEA4), PHB-CC variant with A286E287A288 deleted (domain or fragment)” here?
The stoichiometry N was 2.

For “Purified PHB domain of FloA (domain or fragment)”, which stoichiometry N [2] is on record?
Its stoichiometry N is 2.

“Purified OBL domain of NfeD (domain or fragment)” was tested. Which stoichiometry N [3] did it give?
Its stoichiometry N is 2.

How did the stoichiometry N [4] turn out when Purified native NfeD (natural protein) was run?
Its stoichiometry N is 2.
